Experimental data reported in US10428140B2, “Anti-EphA4 antibody” (EISAI R&D MANAGEMENT CO., LTD., priority 2015, dated 2019).

Columns and labels:
Assay in all cases: Selectivity ELISA of humanized antibodies for human Eph receptor
Type in all cases: binding
human EphB1 = target: T1, human EphB1 (Homo sapiens, UniProt P54762); conditions: coated protein 1 nM
T1 construct: a protein of the extracellular region of each human Eph receptor fused with the SEAP protein and the His tag; made in house; host or cells: Expi293F cells (culture supernatant)
T1 sequence (P54762 18-540 limits assumed): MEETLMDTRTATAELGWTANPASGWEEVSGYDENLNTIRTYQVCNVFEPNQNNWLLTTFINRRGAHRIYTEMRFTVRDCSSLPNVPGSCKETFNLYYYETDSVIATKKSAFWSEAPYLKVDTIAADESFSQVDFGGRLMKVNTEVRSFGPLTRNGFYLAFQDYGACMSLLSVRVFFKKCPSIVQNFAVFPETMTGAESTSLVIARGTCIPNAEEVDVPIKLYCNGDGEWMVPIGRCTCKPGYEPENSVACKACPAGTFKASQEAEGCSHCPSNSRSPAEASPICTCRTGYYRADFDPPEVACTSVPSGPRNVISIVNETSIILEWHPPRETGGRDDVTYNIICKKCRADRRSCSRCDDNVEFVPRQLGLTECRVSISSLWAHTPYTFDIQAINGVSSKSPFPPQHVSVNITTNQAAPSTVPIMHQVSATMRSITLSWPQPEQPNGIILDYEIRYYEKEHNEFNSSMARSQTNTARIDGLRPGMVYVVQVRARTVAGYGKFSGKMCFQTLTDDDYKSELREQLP
How it was run: (§1)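 Steps: coat anti-His antibody; block, then 1% BlockAce overnight at 4 °C; add Eph receptor extracellular region-SEAP-His (1 nM final) 1 h; add humanized antibody 1 h; add HRP anti-IgG 1 h; develop TMB; stop with acid; read 450 nm.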

human EphA1 = target: T2, human EphA1 (Homo sapiens, UniProt P21709); conditions: coated protein 1 nM
T2 construct: a protein of the extracellular region of each human Eph receptor fused with the SEAP protein and the His tag; made in house; host or cells: Expi293F cells (culture supernatant)
T2 sequence (P21709 26-547 limits assumed): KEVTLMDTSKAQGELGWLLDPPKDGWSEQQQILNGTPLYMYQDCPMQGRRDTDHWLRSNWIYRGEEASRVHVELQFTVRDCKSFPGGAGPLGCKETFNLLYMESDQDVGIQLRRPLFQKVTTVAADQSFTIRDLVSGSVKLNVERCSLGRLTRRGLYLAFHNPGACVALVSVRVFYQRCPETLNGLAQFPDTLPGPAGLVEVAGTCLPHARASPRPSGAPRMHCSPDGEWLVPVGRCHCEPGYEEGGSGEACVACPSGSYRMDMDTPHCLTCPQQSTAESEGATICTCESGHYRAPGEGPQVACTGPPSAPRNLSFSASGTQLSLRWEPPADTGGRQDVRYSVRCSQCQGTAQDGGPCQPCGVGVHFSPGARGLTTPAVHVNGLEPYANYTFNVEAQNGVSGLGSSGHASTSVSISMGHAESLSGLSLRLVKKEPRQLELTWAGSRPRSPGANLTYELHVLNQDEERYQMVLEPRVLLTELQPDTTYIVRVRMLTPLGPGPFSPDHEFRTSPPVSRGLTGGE
How it was run: as §1

human EphB2 = target: T3, human EphB2 (Homo sapiens, UniProt P29323); conditions: coated protein 1 nM
T3 construct: a protein of the extracellular region of each human Eph receptor fused with the SEAP protein and the His tag; made in house; host or cells: Expi293F cells
T3 sequence (P29323 19-543 limits assumed): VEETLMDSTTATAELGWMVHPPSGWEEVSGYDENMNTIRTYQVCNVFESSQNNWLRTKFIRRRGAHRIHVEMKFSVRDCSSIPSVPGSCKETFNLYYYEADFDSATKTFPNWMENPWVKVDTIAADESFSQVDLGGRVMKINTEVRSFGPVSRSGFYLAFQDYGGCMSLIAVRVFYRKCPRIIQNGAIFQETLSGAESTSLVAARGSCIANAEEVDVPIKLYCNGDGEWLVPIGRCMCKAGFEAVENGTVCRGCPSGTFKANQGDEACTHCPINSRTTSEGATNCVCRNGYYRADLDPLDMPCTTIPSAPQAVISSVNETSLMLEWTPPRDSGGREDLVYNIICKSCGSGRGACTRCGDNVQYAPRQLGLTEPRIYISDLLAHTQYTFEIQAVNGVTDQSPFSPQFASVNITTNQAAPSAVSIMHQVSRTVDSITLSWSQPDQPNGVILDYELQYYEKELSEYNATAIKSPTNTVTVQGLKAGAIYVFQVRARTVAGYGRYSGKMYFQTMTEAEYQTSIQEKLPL
How it was run: as §1

human EphA4 = target: T4, human EphA4 (Homo sapiens, UniProt P54764); conditions: coated protein 1 nM; reference set to 100%
T4 construct: made in house; not restated for the human SEAP-His protein
How it was run: as §1

T4 sequence (P54764 20-547): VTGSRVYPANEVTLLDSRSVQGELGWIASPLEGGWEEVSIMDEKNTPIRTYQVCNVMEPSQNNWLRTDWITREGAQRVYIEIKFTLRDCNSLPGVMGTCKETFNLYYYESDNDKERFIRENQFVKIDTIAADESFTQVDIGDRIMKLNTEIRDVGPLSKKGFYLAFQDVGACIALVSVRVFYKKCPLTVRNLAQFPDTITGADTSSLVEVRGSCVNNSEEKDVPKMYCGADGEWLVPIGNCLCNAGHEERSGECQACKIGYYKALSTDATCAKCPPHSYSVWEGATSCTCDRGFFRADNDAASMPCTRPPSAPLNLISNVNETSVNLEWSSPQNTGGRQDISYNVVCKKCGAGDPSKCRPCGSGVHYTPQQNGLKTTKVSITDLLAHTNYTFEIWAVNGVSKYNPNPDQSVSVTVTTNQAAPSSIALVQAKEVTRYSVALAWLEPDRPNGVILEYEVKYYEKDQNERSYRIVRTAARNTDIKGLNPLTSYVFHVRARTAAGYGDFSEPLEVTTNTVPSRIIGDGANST

Molecule	hEphB1-SEAP-: absorbance at 450 nm, percentage with respect to hEphA4-SEAP-His as 100% (human EphB1) [%]	hEphA1-SEAP-: absorbance at 450 nm, percentage with respect to hEphA4-SEAP-His as 100% (human EphA1) [%]	hEphB2-SEAP-: absorbance at 450 nm, percentage with respect to hEphA4-SEAP-His as 100% (human EphB2) [%]	hEphA4-SEAP-: absorbance at 450 nm, percentage with respect to hEphA4-SEAP-His as 100% (human EphA4) [%]
69 (antibody, V domains shown, synthetic humanized antibody heavy chain variable region sequence; synthetic humanized antibody light chain variable region sequence) VH: QIQLVQSGSELKKPGASVKVSCKASGYTFTDYSMHWVRQAPGQGLKWMGWINTETGEPTYADDFKGRFVFSLDTSVSTAYLQISSLKAEDTAVYYCARIPLYYYGSRYWYFDVWGQGTTVTVSS VL: DIQMTQSPSSLSASVGDRVTITCRASENIYRNLAWYQQKPGKAPKLLVYAATNLADGVPSRFSGSGSGTDYTLTISSLQPEDFATYYCQHFWGTPWTFGQGTKVEIK	5.6	5.7	5.5	100
84 (antibody, V domains shown, constant regions without entry; synthetic humanized antibody light chain variable region sequence; synthetic humanized antibody heavy chain variable region sequence) VL: DIQMTQSPSSLSASVGDRVTITCRASENIYRNLAWYQQKPGKAPKLLLYAATNLADGVPSRFSGSGSGTDYTLTISSLQSEDFATYYCQHFWGTPWTFGQGTKVEIK VH: QVQLVQSGSELKKPGASVKVSCKASGYTFTDYSMHWVRQAPGQGLEWMGWINTETGEPTYADDFKGRFVFSLDTSVSTAYLQISSLKAEDTAVYYCARIPLYYYGSRYWYFDVWGQGTTVTVSS	5.2	5.2	4.9	100
83 (antibody, V domains shown, constant regions without entry; synthetic humanized antibody light chain variable region sequence; synthetic humanized antibody heavy chain variable region sequence) VL: DIQMTQSPSSLSASVGDRVTITCRASENIYRNLAWYQQKPGKAPKLLLYAATNLADGVPSRFSGSGSGTDYTLTISSLQSEDFATYYCQHFWGTPWTFGQGTKVEIK VH: QIQLVQSGSELKKPGASVKVSCKASGYTFTDYSMHWVRQAPGQGLKWMGWINTETGEPTYAQGFTGRFVFSLDTSVSTAYLQISSLKAEDTAVYYCARIPLYYYGSRYWYFDVWGQGTTVTVSS	5.6	5.7	5.6	100
85 (antibody, V domains shown, constant regions without entry; synthetic humanized antibody light chain variable region sequence; synthetic humanized antibody heavy chain variable region sequence) VL: DIQMTQSPSSLSASVGDRVTITCRASENIYRNLAWYQQKPGKAPKLLLYAATNLADGVPSRFSGSGSGTDYTLTISSLQSEDFATYYCQHFWGTPWTFGQGTKVEIK VH: QVQLVQSGSELKKPGASVKVSCKASGYTFTDYSMHWVRQAPGQGLKWMGWINTETGEPTYADDFKGRFVFSLDTSVSTAYLQISSLKAEDTAVYYCARIPLYYYGSRYWYFDVWGQGTTVTVSS	5.0	5.0	5.1	100
82 (antibody, V domains shown, constant regions without entry; synthetic humanized antibody light chain variable region sequence; synthetic humanized antibody heavy chain variable region sequence) VL: DIQMTQSPSSLSASVGDRVTITCRASENIYRNLAWYQQKPGKAPKLLLYAATNLADGVPSRFSGSGSGTDYTLTISSLQSEDFATYYCQHFWGTPWTFGQGTKVEIK VH: QVQLVQSGSELKKPGASVKVSCKASGYTFTDYSMHWVRQAPGQGLKWMGWINTETGEPTYAQGFTGRFVFSLDTSVSTAYLQISSLKAEDTAVYYCARIPLYYYGSRYWYFDVWGQGTTVTVSS	5.4	5.4	5.6	100
81 (antibody, V domains shown, constant regions without entry; synthetic humanized antibody light chain variable region sequence; synthetic humanized antibody heavy chain variable region sequence) VL: DIQMTQSPSSLSASVGDRVTITCRASENIYRNLAWYQQKPGKAPKLLLYAATNLADGVPSRFSGSGSGTDYTLTISSLQSEDFATYYCQHFWGTPWTFGQGTKVEIK VH: QVQLVQSGSELKKPGASVKVSCKASGYTFTDYSMHWVRQAPGQGLEWMGWINTETGEPTYAQGFTGRFVFSLDTSVSTAYLQISSLKAEDTAVYYCARIPLYYYGSRYWYFDVWGQGTTVTVSS	4.9	4.4	5.0	100
86 (antibody, V domains shown, constant regions without entry; synthetic humanized antibody light chain variable region sequence; synthetic humanized antibody heavy chain variable region sequence) VL: DIQMTQSPSSLSASVGDRVTITCRASENIYRNLAWYQQKPGKAPKLLLYAATNLADGVPSRFSGSGSGTDYTLTISSLQSEDFATYYCQHFWGTPWTFGQGTKVEIK VH: QIQLVQSGSELKKPGASVKVSCKASGYTFTDYSMHWVRQAPGQGLKWMGWINTETGEPTYADDFKGRFVFSLDTSVSTAYLQISSLKAEDTAVYYCARIPLYYYGSRYWYFDVWGQGTTVTVSS	5.7	5.9	5.7	100
